The text below walks through data of patent US20230220007A1, “SETD7 EPIGENETIC MODULATORS” (Biorchestra Co., Ltd., priority 2020, published 2023).

To fix the notation:
B1: WT SETD7: wild type histone-lysine N-methyltransferase SETD7, full length (SEQ ID NO: 37) (protein)
chain: MDSDDEMVEEAVEGHLDDDGLPHGFCTVTYSSTDRFEGNFVHGEKNGRGKFFFFDGSTLEGYYVDDALQGQGVYTYEDGGVLQGTYVDGELNGPAQEYDTDGRLIFKGQYKDNIRHGVCWIYYPDGGSLVGEVNEDGEMTGEKIAYVYPDERTALYGKFIDGEMIEGKLATLMSTEEGRPHFELMPGNSVYHFDKSTSSCISTNALLPDPYESERVYVAESLISSAGEGLFSKVAVGPNTVMSFYNGVRITHQEVDSRDWALNGNTLSLDEETVIDVPEPYNHVSKYCASLGHKANHSFTPNCIYDMFVHPRFGPIKCIRTLRAVEADEELTVAYGYDHSPPGKSGPEAPEWYQVELKAFQATQQK
B2: S225A: SETD7 mutant, Ser225 mutated to alanine (phospho-disrupting mutation) (protein)
chain: MDSDDEMVEEAVEGHLDDDGLPHGFCTVTYSSTDRFEGNFVHGEKNGRGKFFFFDGSTLEGYYVDDALQGQGVYTYEDGGVLQGTYVDGELNGPAQEYDTDGRLIFKGQYKDNIRHGVCWIYYPDGGSLVGEVNEDGEMTGEKIAYVYPDERTALYGKFIDGEMIEGKLATLMSTEEGRPHFELMPGNSVYHFDKSTSSCISTNALLPDPYESERVYVAESLISAAGEGLFSKVAVGPNTVMSFYNGVRITHQEVDSRDWALNGNTLSLDEETVIDVPEPYNHVSKYCASLGHKANHSFTPNCIYDMFVHPRFGPIKCIRTLRAVEADEELTVAYGYDHSPPGKSGPEAPEWYQVELKAFQATQQK
B3: Q354A: SETD7 substitution mutant at position 354 (protein)
chain: MDSDDEMVEEAVEGHLDDDGLPHGFCTVTYSSTDRFEGNFVHGEKNGRGKFFFFDGSTLEGYYVDDALQGQGVYTYEDGGVLQGTYVDGELNGPAQEYDTDGRLIFKGQYKDNIRHGVCWIYYPDGGSLVGEVNEDGEMTGEKIAYVYPDERTALYGKFIDGEMIEGKLATLMSTEEGRPHFELMPGNSVYHFDKSTSSCISTNALLPDPYESERVYVAESLISSAGEGLFSKVAVGPNTVMSFYNGVRITHQEVDSRDWALNGNTLSLDEETVIDVPEPYNHVSKYCASLGHKANHSFTPNCIYDMFVHPRFGPIKCIRTLRAVEADEELTVAYGYDHSPPGKSGPEAPEWYAVELKAFQATQQK
B4: K358A: SETD7 substitution mutant at position 358 (protein)
chain: MDSDDEMVEEAVEGHLDDDGLPHGFCTVTYSSTDRFEGNFVHGEKNGRGKFFFFDGSTLEGYYVDDALQGQGVYTYEDGGVLQGTYVDGELNGPAQEYDTDGRLIFKGQYKDNIRHGVCWIYYPDGGSLVGEVNEDGEMTGEKIAYVYPDERTALYGKFIDGEMIEGKLATLMSTEEGRPHFELMPGNSVYHFDKSTSSCISTNALLPDPYESERVYVAESLISSAGEGLFSKVAVGPNTVMSFYNGVRITHQEVDSRDWALNGNTLSLDEETVIDVPEPYNHVSKYCASLGHKANHSFTPNCIYDMFVHPRFGPIKCIRTLRAVEADEELTVAYGYDHSPPGKSGPEAPEWYQVELAAFQATQQK
B5: Q365A: SETD7 substitution mutant at position 365 (protein)
chain: MDSDDEMVEEAVEGHLDDDGLPHGFCTVTYSSTDRFEGNFVHGEKNGRGKFFFFDGSTLEGYYVDDALQGQGVYTYEDGGVLQGTYVDGELNGPAQEYDTDGRLIFKGQYKDNIRHGVCWIYYPDGGSLVGEVNEDGEMTGEKIAYVYPDERTALYGKFIDGEMIEGKLATLMSTEEGRPHFELMPGNSVYHFDKSTSSCISTNALLPDPYESERVYVAESLISSAGEGLFSKVAVGPNTVMSFYNGVRITHQEVDSRDWALNGNTLSLDEETVIDVPEPYNHVSKYCASLGHKANHSFTPNCIYDMFVHPRFGPIKCIRTLRAVEADEELTVAYGYDHSPPGKSGPEAPEWYQVELKAFQATQAK
B6: E356A: SETD7 substitution mutant at position 356 (protein)
chain: MDSDDEMVEEAVEGHLDDDGLPHGFCTVTYSSTDRFEGNFVHGEKNGRGKFFFFDGSTLEGYYVDDALQGQGVYTYEDGGVLQGTYVDGELNGPAQEYDTDGRLIFKGQYKDNIRHGVCWIYYPDGGSLVGEVNEDGEMTGEKIAYVYPDERTALYGKFIDGEMIEGKLATLMSTEEGRPHFELMPGNSVYHFDKSTSSCISTNALLPDPYESERVYVAESLISSAGEGLFSKVAVGPNTVMSFYNGVRITHQEVDSRDWALNGNTLSLDEETVIDVPEPYNHVSKYCASLGHKANHSFTPNCIYDMFVHPRFGPIKCIRTLRAVEADEELTVAYGYDHSPPGKSGPEAPEWYQVALKAFQATQQK
B7: Q361A: SETD7 substitution mutant at position 361 (protein)
chain: MDSDDEMVEEAVEGHLDDDGLPHGFCTVTYSSTDRFEGNFVHGEKNGRGKFFFFDGSTLEGYYVDDALQGQGVYTYEDGGVLQGTYVDGELNGPAQEYDTDGRLIFKGQYKDNIRHGVCWIYYPDGGSLVGEVNEDGEMTGEKIAYVYPDERTALYGKFIDGEMIEGKLATLMSTEEGRPHFELMPGNSVYHFDKSTSSCISTNALLPDPYESERVYVAESLISSAGEGLFSKVAVGPNTVMSFYNGVRITHQEVDSRDWALNGNTLSLDEETVIDVPEPYNHVSKYCASLGHKANHSFTPNCIYDMFVHPRFGPIKCIRTLRAVEADEELTVAYGYDHSPPGKSGPEAPEWYQVELKAFAATQQK
B8: K366A: SETD7 substitution mutant at position 366 (protein)
chain: MDSDDEMVEEAVEGHLDDDGLPHGFCTVTYSSTDRFEGNFVHGEKNGRGKFFFFDGSTLEGYYVDDALQGQGVYTYEDGGVLQGTYVDGELNGPAQEYDTDGRLIFKGQYKDNIRHGVCWIYYPDGGSLVGEVNEDGEMTGEKIAYVYPDERTALYGKFIDGEMIEGKLATLMSTEEGRPHFELMPGNSVYHFDKSTSSCISTNALLPDPYESERVYVAESLISSAGEGLFSKVAVGPNTVMSFYNGVRITHQEVDSRDWALNGNTLSLDEETVIDVPEPYNHVSKYCASLGHKANHSFTPNCIYDMFVHPRFGPIKCIRTLRAVEADEELTVAYGYDHSPPGKSGPEAPEWYQVELKAFQATQQA
B9: K294A: SETD7 substitution mutant at position 294 (protein)
chain: MDSDDEMVEEAVEGHLDDDGLPHGFCTVTYSSTDRFEGNFVHGEKNGRGKFFFFDGSTLEGYYVDDALQGQGVYTYEDGGVLQGTYVDGELNGPAQEYDTDGRLIFKGQYKDNIRHGVCWIYYPDGGSLVGEVNEDGEMTGEKIAYVYPDERTALYGKFIDGEMIEGKLATLMSTEEGRPHFELMPGNSVYHFDKSTSSCISTNALLPDPYESERVYVAESLISSAGEGLFSKVAVGPNTVMSFYNGVRITHQEVDSRDWALNGNTLSLDEETVIDVPEPYNHVSKYCASLGHAANHSFTPNCIYDMFVHPRFGPIKCIRTLRAVEADEELTVAYGYDHSPPGKSGPEAPEWYQVELKAFQATQQK

The test system of the first series is human retinal pigment epithelial cells (RPE). Description: Nuclear translocation of SETD7 alanine (phospho-disrupting) mutants in response to high glucose levels. The class given is cell-based. Conditions: mutants expressed in human RPE cells; FIG. 3. The text has this: To identify the potential role of phosphorylatable sites located in the C-terminal regions of SETD7 (FIG. 1), phosphorylatable serines, threonines and tyrosines at positions 225, 305, 332, 340, and 345 where mutated to alanine (phospho-disrupting mutations) and expressed in human retinal pigment epithelial cells (RPE). Nuclear translocation or lack thereof in response to high glucose levels was examined (FIG. 2).
SETD7 cellular distribution changed in response to changes in glucose levels for wild type SETD7 (WT) and SETD7 mutants comprising a S225A substitution or a Y305A substitutions.
With B1, the “nuclear translocation in response to changes in glucose” value was “translocated normally to the nucleus”. Regarding B2, the “nuclear translocation in response to changes in glucose” value is “translocated normally to the nucleus”.

A further series has as its system histone.
Experiment: not given
To be noted: SETD7 substitution mutants; cited from earlier work.
As to B3, the monomethyl transferase activity result was “partial loss”. Take B4: the monomethyl transferase activity entry is reported as “partial loss”. With B5, the monomethyl transferase activity result is listed as “partial loss”. Consider B6, for which the monomethyl transferase activity result is listed as “partial loss”. As for B7, the monomethyl transferase activity result is “partial loss”. For the molecule B8, the monomethyl transferase activity result is “partial loss”.

Staying with this series, now noted: cited from earlier work.
Regarding B9, the “catalytic activity (e.g., monomethyl transferase activity)” value was “reduces”.
